Where a chain is given by its changes, count along the chain named. In names and notes the source's numbering stands.
B1: FLP136: PfHPPD variant P215L, E335P, G336F (protein)
chain: MADLYENPMGLMGFEFIEFASPTPGTLEPIFEIMGFTKVATHRSKNVHLYRQGEINLILNNEPNSIASYFAAEHGPSVCGMAFRVKDSQKAYNRALELGAQPIHIDTGPMELNLPAIKGIGGAPLYLIDRFGEGSSIYDIDFVYLEGVERNPVGAGLKVIDHLTHNVYRGRMVYWANFYEKLFNFREARYFDIKGEYTGLTSKAMSAPDGMIRILLNEESSKGAGQIEEFLMQFNGEGIQHVAFLTDDLVKTWDALKKIGMRFMTAPPDTYYEMLEGRLPDHGEPVDQLQARGILLDGSSVEGDKRLLLQIFSETLMGPVFFEFIQRKGDDGFGPFNFKALFESIERDQVRRGVLTAD
modifications: HPPD variant - FLP136
notes: PfHPPD variant P215L, E335P, G336F
B2: FLP202: PfHPPD variant P215L, E335P, G336F, A340E (protein)
chain: B1 chain with A340E
modifications: HPPD variant - FLP202
notes: PfHPPD variant P215L, E335P, G336F, A340E

Tested on: Pseudomonas fluorescens HPPD protein
Assay: OD assay: HPPD activity and pI50 from HPP remaining after derivatisation with DNP
Format: biochemical
Settings: for Activity DeltaE/24 min μg Protein: HPPD enzyme activity of the clone; for tolerance (pI50) Cmpd. 2: inhibitor Cmpd. 2; for tolerance (pI50) DKN: inhibitor diketonitrile (DKN), negative log of molar concentration; for tolerance (pI50) MST: inhibitor mesotrione (MST); for tolerance (pI50) TBT: inhibitor tembotrione (TBT)
Method in brief: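 pI50 values for Pseudomonas fluorescens HPPD come from two room-temperature formats. The coupled HGD assay continuously follows maleylacetoacetate at 318 nm (pH 7.6 Tris, 600 μM HPP, FeSO4, ascorbate, catalase, inhibitor up to 100 μM) and classifies inhibition type from time-dependence. The endpoint OD assay measures unconsumed 0.5 mM HPP after 24 min via DNP hydrazone at 405 nm (pH 7.8), testing 5.0×10^−6–5.0×10^−4 M inhibitor.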

Row | Molecule | Activity DeltaE/24 min μg Protein [DeltaE/24 min μg Protein] | tolerance (pI50) Cmpd. 2 | tolerance (pI50) DKN | tolerance (pI50) MST | tolerance (pI50) TBT
1 | B1 | 0.09 | 4.8 | 2.6 | 3.3 | 4.7
2 | B2 | 0.09 | 4.5 | <2.5 | <2.5 | 3.6

From US10400249B2, “HPPD variants and methods of use” (priority 2014, dated 2019)
